Test results published in patent US20110086770A1.

T1: recombinant human DR 4 receptor Fc fusion protein (R&D Systems) (human)
T1 sequence (O00220 whole entry, looked up): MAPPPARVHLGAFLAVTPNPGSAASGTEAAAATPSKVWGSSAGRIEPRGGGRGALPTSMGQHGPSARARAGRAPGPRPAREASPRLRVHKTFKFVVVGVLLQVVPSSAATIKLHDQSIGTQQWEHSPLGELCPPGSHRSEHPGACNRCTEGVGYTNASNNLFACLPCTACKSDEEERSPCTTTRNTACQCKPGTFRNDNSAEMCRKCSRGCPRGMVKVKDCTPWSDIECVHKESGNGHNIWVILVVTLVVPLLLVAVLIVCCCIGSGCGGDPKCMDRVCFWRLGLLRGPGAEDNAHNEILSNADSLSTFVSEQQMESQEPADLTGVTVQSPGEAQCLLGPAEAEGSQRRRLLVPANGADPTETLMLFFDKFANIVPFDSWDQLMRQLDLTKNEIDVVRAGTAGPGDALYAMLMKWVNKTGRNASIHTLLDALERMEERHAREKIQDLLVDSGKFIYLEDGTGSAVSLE

B1: 014-42.3D10 ATRIMER (designed binder, part only; not given: nothing essential, part only)
chain, part: EPPTQKPKKIVNAKKDVVNTKMFEELKSRLDTLAQEVALLKEQQALQTVCLKGTKVHMKCFLAFTQTKTFHEASEDCISRGGTLSTPQTGSENDALYEYLRQSVGNEAEIWLGLNVDMTGARIAYKNWETEITAQPCAVLSGAANGKWFDKRCRDQLPYICQFGIV
B2: 014-42.3B8 ATRIMER (designed binder, part only; not given: nothing essential, part only)
chain, part: EPPTQKPKKIVNAKKDVVNTKMFEELKSRLDTLAQEVALLKEQQALQTVCLKGTKVHMKCFLAFTQTKTFHEASEDCISRGGTLSTPQTGSENDALYEYLRQSVGNEAEIWLGLNVDMTGARIAYKNWETEITAQPCAVLSGAANGKWFDKRCRDQLPYICQFGIV
B3: 4a8c (=A3C) DR 5 ATRIMER (designed binder, from a related filing, part only)
chain: EPPTQKPKKIVNAKKDVVNTKMFEELKSRLDTLAQEVALLKEQQALQTVCLKGTKVHMKCFLAFTQTKTFHEASEDCISRGGTLSTPQTGSENDALYEYLRQSVGNEAEIWLGLNRATLRPRWVDMTGARIAYKNWETEITAQPDGGKNCAVLSGAANGKWFDKRCRDQLPYICQFGIV

Columns and labels:
[1] = target: T1, recombinant human DR 4 receptor Fc fusion protein (R&D Systems) (human); assay: SPR (Biacore), captured DR4/Fc
[2] = target: recombinant human DR 5 receptor Fc fusion protein (R&D Systems) (human); assay: SPR (Biacore), captured DR5/Fc
Chain of recombinant human DR 5 receptor Fc fusion protein (R&D Systems) (human) (O14763 whole entry, the tested form may be a part): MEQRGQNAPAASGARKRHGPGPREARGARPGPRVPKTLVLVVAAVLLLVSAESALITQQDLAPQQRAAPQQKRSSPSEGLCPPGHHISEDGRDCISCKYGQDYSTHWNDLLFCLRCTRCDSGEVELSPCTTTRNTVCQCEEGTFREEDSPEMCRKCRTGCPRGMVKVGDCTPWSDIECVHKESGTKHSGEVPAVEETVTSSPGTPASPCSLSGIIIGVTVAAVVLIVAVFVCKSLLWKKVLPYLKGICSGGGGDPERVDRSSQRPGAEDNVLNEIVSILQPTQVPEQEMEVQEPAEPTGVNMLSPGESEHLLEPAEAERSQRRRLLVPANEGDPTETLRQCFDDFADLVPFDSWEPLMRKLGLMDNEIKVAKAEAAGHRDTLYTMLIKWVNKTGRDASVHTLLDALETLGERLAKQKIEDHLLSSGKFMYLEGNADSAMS

Row | Binder | Ka [1] | Kd [1] | koff [1] | kon [1] | Ka [2] | Kd [2] | koff [2] | kon [2]
1 | B1 | 6.58e+06 M⁻¹ | 152 nM | 0.00185 s⁻¹ | 12200 M⁻¹ s⁻¹ | – | – | – | –
2 | B2 | 1.11e+08 M⁻¹ | 9.01 nM | 0.00101 s⁻¹ | 112000 M⁻¹ s⁻¹ | – | – | – | –
3 | B3 | – | – | – | – | 1.74e+08 M⁻¹ | 5.74 nM | 0.000362 s⁻¹ | 63000 M⁻¹ s⁻¹
